Reference: patent US20040022780A1, “Serine protease and topical retinoid compositions useful for treatment of acne vulgarise and production of anti-aging effects” (priority 1997, published 2004)

Legend:
[1] = tested on: utriculi of Rhino mouse skin; test: Rhino mouse utriculus size reduction (whole mount epidermis image analysis); format: in vivo; conditions: for Utriculus Size Reduction (%) vs. Liposome Control: topical once daily for five days, sacrificed day 8
Description: The Rhino mouse has been used as an experimental acne model to screen topically active comedolytic and antikeratinizing agents as described in Sundberg, J. P., “The Hairless and Rhino Mutations, Chromosome 14,” Handbook of Mouse Mutations With Skin and Hair Abnormalities 291-312 (1994), which is incorporated herein by reference in its entirety. A recessive mutation on chromosome 14 results in a mouse with wrinkled skin devoid of body hair by age 25 days. At that time, the end of the first hair cycle, the follicular papillae fail to follow the regressing hair follicles and become isolated in the dermis. […] The upper remnants of the hair follicle are filled with sloughed, cornified cells and form utriculi with a small sebaceous gland at their base, resembling an open comedone. The rhino skin becomes progressively loose, forming folds and ridges, due to the expansion of the surface, secondary to abortive hair follicles filling with cornified debris. The utriculi progressively enlarge, forming pilary cists (pseudocomedones), which are dilated follicular infundibula filled with cornified debris.
RHJ/LE Hairless (“Rhino”) male mice, 5-7 weeks of age, were obtained from Jackson Laboratories (Bar Harbor, Me.), and treated as described in Mezick et al., “Topical and Systemic Effects of Retinoids on Horn-Filled Utriculus Size in the Rhino Mouse: A Model to Quantify “Antikeratinizing” Effects of Retinoids,” 83 J. Invest. Dermatol. 110-113 (1984) (“Mezick”), which is incorporated herein by reference in its entirety.
Rhino mice of Example 1 were topically treated with the trypsin compositions (0.001% (w/v)-1% (w/v)) of Example 2 once daily for five days. Animals were sacrificed at day 8 and image analysis was used to quantify the reduction in utriculi size. For image analysis, whole mount epidermis was processed and microscopic measurements were taken according to the methods described in Mezick as well as Bernerd et al., “The Rhino Mouse Model: The Effects of Topically Applied All-Trans Retinoic Acid and CD271 on the Fine Structure of the Epidermis and Urticuli Wall of Pseudocomedones,” 283(2) Arch. Dermatol. Res. 100-107 (1991) and Bouclier et al., “Quantification of Epidermal Histological Changes Induced by Topical Retinoids and CD271 in the Rhino Mouse Model Using a Standardizing Image Analysis Technique,” 4(2) Skin Pharmacol. 65-73 (1991) which are each incorporated herein by reference in their entirety. Empire Imagins Database version 1.1 was used on a Gateway 2000 P5-100 computer for capturing images. Image Pro Plus version 1.3 was used for measurements and Microsoft Excel version 5.0 for data processing. The mean utriculus diameter (μ) and the mean sebaceous gland size (μ^2) were calculated for each treatment group (3 Rhino mice), using 5 random fields, two measurements per field, per animal. Percent reduction in utriculi diameter was calculated in accordance with the methods described in Finley, D. J., “Parallel Line Assays, Statistical Method in Biological Assay,” Charles Griffen & Company Ltd. 69-104 (1978) which is incorporated herein by reference in its entirety.

[2] = tested on: Rhino mouse skin; test: Cutometer analysis of skin elasticity, Rhino mouse; format: in vivo
Experimental: (§1) To quantitate this effect, a cutometer analysis was performed. We used a cutometer available from Acaderm (Menlo Park, Calif.), and employed the methods described in Couturaud et al., “Skin Biomechanical Properties: In Vivo Evaluation of Influence of Age and Body Site by a Non-Invasive Method,” 1 Skin Res. and Technol. 68-73 (1995) and Elsner et al., “Mechanical Properties of Human Forearm and Vulvar Skin,” 122 Br. J. Dermatol. 607-614 (1990) which are both incorporated herein by reference in their entirety. Suction was applied through a 2 mm aperture and the corresponding skin displacement and recovery after release of the negative pressure were measured. In human studies, an improvement in the ratios of deformation parameters Ua/Uf (skin fatigue, or total recovery from the load), Ur/Uf (biological elasticity, or elastic recovery after loading), and Ur/Ue (firmness, or improvement in the deformation resistance of the skin) indicates better tonicity and elasticity of the skin. The deformation parameters Ue, Uf, Ua, and Ur are dependent, in part, on skin thickness. Consequently, ratios were used for evaluation as described in Barel et al., “Suction Method for Measurement of Skin Mechanical Properties: The Cutometer,” Handbook of Non-Invasive Methods and the Skin 335-340 (1995) which is incorporated herein by reference in its entirety.

[3] = tested on: C57B1/6 skin; test: Cutometer analysis of skin elasticity, C57B1/6 mouse; format: in vivo, C57B1/6 mice; conditions: Day 16, trypsin treated
Experimental: as §1
FIGS. 3(c) and (d), the untreated and trypsin treated skins, respectively, show the results of elastin staining.

[4] = tested on: follicular epithelium of Rhino mouse skin; test: TUNEL stain of skin for apoptotic bodies; format: in vivo; conditions: 0.1% (w/v) trypsin daily for five days, sacrificed at day eight
Experimental: Rhino mice of Example 1 were treated daily with a 0.1% (w/v) trypsin composition of Example 2 for five days and sacrificed at day eight.
1 cm by 2 cm samples of the skins of untreated, vehicle treated, and trypsin treated mice were obtained via the procedure set forth in Example 3 then analyzed using a TdT-mediated dUTP-biotin nick end labeling (“TUNEL”) stain procedure as disclosed in Gavrieli et al., “Identification of Programmed Cell Death in situ Via Specific Labeling of Nuclear DNA Fragmentation”, 119 Jl. Cell Biology 493-501 (1992) (“Gavrieli”). During this procedure, the prepared skin sections were stained using an “ApopTag™ Plus In Situ Apoptosis Detection Kit” available from Oncor, Inc. as specified in the “ApopTag™ Plus In Situ Apoptosis Detection Kit” protocol by Oncor, Inc. (Feb. 1995), which is based upon the labeling of fragmented DNA ends as described in Gavrieli. FIGS. 5(a-d) show a histological analysis wherein the stain has a peroxidase end point (brown) and a methyl green counter-stain. The resulting representations of this are provided in FIGS. 5(a&b) which are vehicle treated and FIGS. 5(c&d) which are trypsin treated.

[5] = tested on: utriculi of Rhino mouse skin; test: Rhino mouse utriculus size reduction (whole mount epidermis image analysis); format: in vivo; conditions: single trypsin 1% (w/v) treatment, analyzed seven days later

B1: trypsin (protein, UniProt P00760 24-246, looked up)
Serine protease 1: IVGGYTCGANTVPYQVSLNSGYHFCGGSLINSQWVVSAAHCYKSGIQVRLGEDNINVVEGNEQFISASKSIVHPSYNSNTLNNDIMLIKLKSAASLNSRVASISLPTSCASAGTQCLISGWGNTKSSGTSYPDVLKCLKAPILSDSSCKSAYPGQITSNMFCAGYLEGGKDSCQGDSGGPVVCSGKLQGIVSWGSGCAQKNKPGVYTKVCNYVSWIKQTIASN
notes: lyophilyzed trypsin from Sigma-Aldrich, a serine protease, in Hepes buffer mixed with GDL liposomes
[1]; Trypsin 0.001% (w/v) in GDL liposomes
  Utriculus Size Reduction (%) vs. Liposome Control: 26.85 ± 4.38%
[1]; Trypsin 0.005% (w/v) in GDL liposomes
  Utriculus Size Reduction (%) vs. Liposome Control: 19.58 ± 3.06%
[1]; Trypsin 0.01% (w/v) in GDL liposomes
  Utriculus Size Reduction (%) vs. Liposome Control: 33.08 ± 2.15%
[1]; Trypsin 0.05% (w/v) in GDL liposomes
  Utriculus Size Reduction (%) vs. Liposome Control: 43.84 ± 0.62%
[1]; Trypsin 0.1% (w/v) in GDL liposomes
  Utriculus Size Reduction (%) vs. Liposome Control: 50.67 ± 0.83%
[1]; Trypsin 0.5% (w/v) in GDL liposomes
  Utriculus Size Reduction (%) vs. Liposome Control: 54.31 ± 1.33%
[1]; Trypsin 1.0% (w/v) in GDL liposomes
  Utriculus Size Reduction (%) vs. Liposome Control: 54.85 ± 1.02%
[1]; further increase in trypsin concentration above ~0.1% (w/v)
  maximal reduction of utriculus size relative to liposomal control: ≤ 55%
[1]; once daily for five days
  trypsin concentration at which reduction in utriculus size reached a plateau: ~0.1 % (w/v)
[2]; Day 7, trypsin treated
  Ua/Uf (skin fatigue, total recovery from the load): 0.593 ± 0.09
  Ur/Ue (firmness): 0.557 ± 0.21
  Ur/Uf (biological elasticity): 0.359 ± 0.22
[2]; Day 12, trypsin treated
  Ua/Uf (skin fatigue, total recovery from the load): 0.663 ± 0.10
  Ur/Ue (firmness): 0.666 ± 0.24
  Ur/Uf (biological elasticity): 0.548 ± 0.11
[2]; Day 16, trypsin treated
  Ua/Uf (skin fatigue, total recovery from the load): 0.675 ± 0.03
  Ur/Ue (firmness): 0.733 ± 0.18
  Ur/Uf (biological elasticity): 0.404 ± 0.08
[3]
  Ua/Uf (skin fatigue, total recovery from the load): 0.675 ± 0.18
  Ur/Ue (firmness): 0.7335 ± 0.02
  Ur/Uf (biological elasticity): 0.404 ± 0.1
[4]
  apoptotic bodies within the follicular epithelium (TUNEL): elimination of all the apoptotic bodies
[5]
  effect on utriculus size reduction of a single treatment: no effect
